From WO2018065552A1 (dated 2018)

Target: T1, human CD39 endogenously expressed on Ramos human lymphoma cells (human, UniProt P49961 1-510)
T1 construct: also called NTPDase1; ENTPD1
T1 sequence: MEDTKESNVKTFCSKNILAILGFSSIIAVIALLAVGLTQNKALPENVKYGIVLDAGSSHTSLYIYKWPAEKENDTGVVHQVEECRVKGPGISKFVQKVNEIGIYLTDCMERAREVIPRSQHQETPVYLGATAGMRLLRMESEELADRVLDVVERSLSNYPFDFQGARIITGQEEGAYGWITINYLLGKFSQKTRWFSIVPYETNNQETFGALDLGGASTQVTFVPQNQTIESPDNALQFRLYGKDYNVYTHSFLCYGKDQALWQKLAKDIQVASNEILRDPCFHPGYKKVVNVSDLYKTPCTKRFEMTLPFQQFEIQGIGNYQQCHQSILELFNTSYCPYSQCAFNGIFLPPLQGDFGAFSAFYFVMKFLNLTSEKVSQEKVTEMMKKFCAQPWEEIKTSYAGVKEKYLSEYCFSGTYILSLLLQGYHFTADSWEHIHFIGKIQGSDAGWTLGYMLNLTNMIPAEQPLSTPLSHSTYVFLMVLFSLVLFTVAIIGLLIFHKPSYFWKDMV
Assay: flow cytometry, antibody titration on Ramos cells endogenously expressing CD39

B1: HH3/L0 (antibody, human IgG1, V domains shown)
VH: QVQLVQSGSELKKPGASVKVSCKASGYTFTHYGMNWVRQAPGQGLKWMGWINTYTGEPTYAQDFKGRFVFSLDTSVSTAYLQISSLKAEDTAVYYCARRRYEGNSVFYYFDYWGQGTTVTVSS
VL: DIQMTQSPSSLSASVGDRVTITCRASENIYSYFSWYQQKPGKAPKLLIYTAKTLAEGVPSRFSGSGSGTDFTLTISSLQPEDFATYYCQHHYVTPYTFGGGTKVEIK
notes: Human IgG1 N297Q, huCk; also called mAb38
binding result: binds

B2: HH4/L0 (antibody, human IgG1, V domains shown)
VH: QVQLVQSGSELKKPGASVKVSCKASGYTFTHYGMNWVRQAPGQGLKWMGWINTETGEPTYADDFKGRFVFSLDTSVSTAYLQISSLKAEDTAVYYCARRRYEGNYVFYYFDYWGQGTTVTVSS
VL: DIQMTQSPSSLSASVGDRVTITCRASENIYSYFSWYQQKPGKAPKLLIYTAKTLAEGVPSRFSGSGSGTDFTLTISSLQPEDFATYYCQHHYVTPYTFGGGTKVEIK
notes: Human IgG1 N297Q, huCk; HH4 has a glutamic acid substitution at Kabat residue 53; its row is lacking in this copy; If the inference holds, this is mAb39
binding result: no binding
